The numbers were not newly measured in article PMC5523132 (ACS chemical biology, 2016), which cites them from elsewhere.

For this series the following is noted: cited from earlier work.

For the compound RSA: rat serum albumin, for the setting “in the rat”, the clearance half-life result is reported as “approx. 48 hours”.

On to `O=C([O-])CN1CCN(CC(=O)[O-])CCN(CC(=O)[O-])CCN(CC(=O)[O-])CC1.[Gd+3]` [[Gd•DOTA], reference compound], for which the half-life entry (adult rats) is on record as “roughly 19 minutes”.
